Laboratory results from article PMC9482650, “Quantitative fragmentomics allow affinity mapping of interactomes” (Nature Communications, 2022).

Experiments:
Experiment in all cases: holdup assay
Parameters in all cases: key: below the threshold = too weak to quantify, mostly under pKd 3.1 to 4
Details in all cases: plain residues with an end cap or a label only (N-terminal biotin on a linker: ttds)
RGS12, O14924 = molecular target: T1, RGS12, O14924
T1 sequence (O14924 17-108, limits assumed, looked up): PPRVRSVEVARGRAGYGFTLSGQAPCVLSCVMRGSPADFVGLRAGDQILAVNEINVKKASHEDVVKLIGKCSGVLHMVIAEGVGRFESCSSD

USH1C_1, Q9Y6N9 = molecular target: T2, USH1C_1, Q9Y6N9
T2 sequence (Q9Y6N9 82-179, limits assumed, looked up): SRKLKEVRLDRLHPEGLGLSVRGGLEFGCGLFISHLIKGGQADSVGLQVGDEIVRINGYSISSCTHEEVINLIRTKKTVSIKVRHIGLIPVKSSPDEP

NHERF1_2, O14745 = molecular target: T3, NHERF1_2, O14745
T3 sequence (O14745 149-244, limits assumed, looked up): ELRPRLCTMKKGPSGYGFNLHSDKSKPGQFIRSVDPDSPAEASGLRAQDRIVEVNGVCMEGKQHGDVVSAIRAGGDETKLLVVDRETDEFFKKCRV

RGS3, P49796-9 = molecular target: RGS3, P49796-9
MPP1, Q00013 = molecular target: T4, MPP1, Q00013
T4 sequence (Q00013 66-162, limits assumed, looked up): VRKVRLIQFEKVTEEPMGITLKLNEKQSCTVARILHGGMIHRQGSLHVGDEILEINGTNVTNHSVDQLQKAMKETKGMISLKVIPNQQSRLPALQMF

SNTB2, Q13425 = molecular target: T5, SNTB2, Q13425
T5 sequence (Q13425 110-208, limits assumed, looked up): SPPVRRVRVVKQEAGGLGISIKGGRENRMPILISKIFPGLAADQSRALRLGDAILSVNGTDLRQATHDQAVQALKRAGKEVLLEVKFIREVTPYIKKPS

PARD3_1, Q8TEW0 = molecular target: PARD3_1, Q8TEW0
PTPN13_4, Q12923 = molecular target: T6, PTPN13_4, Q12923
T6 sequence (Q12923 1783-1878, limits assumed, looked up): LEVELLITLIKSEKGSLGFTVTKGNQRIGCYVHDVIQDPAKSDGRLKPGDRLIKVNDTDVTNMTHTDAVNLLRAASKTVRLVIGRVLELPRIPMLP

MPDZ_3, O75970 = molecular target: T7, MPDZ_3, O75970
T7 sequence (O75970 372-473, limits assumed, looked up): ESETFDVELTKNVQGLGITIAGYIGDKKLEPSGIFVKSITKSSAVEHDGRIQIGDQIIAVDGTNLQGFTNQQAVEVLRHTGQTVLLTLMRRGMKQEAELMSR

RIMS1, Q86UR5 = molecular target: RIMS1, Q86UR5
CNKSR3, Q6P9H4 = molecular target: CNKSR3, Q6P9H4
MAGI1_5, Q96QZ7 = molecular target: MAGI1_5, Q96QZ7
PDZD2_3, O15018 = molecular target: T8, PDZD2_3, O15018
T8 sequence (O15018 581-682, limits assumed, looked up): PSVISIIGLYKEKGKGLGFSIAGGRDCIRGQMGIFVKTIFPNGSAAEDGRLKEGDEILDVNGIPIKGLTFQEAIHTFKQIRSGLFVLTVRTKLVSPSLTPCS

SCRIB_4, Q14160 = molecular target: SCRIB_4, Q14160
MAGI1_3, Q96QZ7 = molecular target: MAGI1_3, Q96QZ7
SHANK3, Q9BYB0 = molecular target: T9, SHANK3, Q9BYB0
T9 sequence (Q9BYB0 641-750, limits assumed, looked up): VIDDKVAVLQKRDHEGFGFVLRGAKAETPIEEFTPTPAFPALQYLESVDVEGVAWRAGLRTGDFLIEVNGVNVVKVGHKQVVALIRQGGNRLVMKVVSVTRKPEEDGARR

NHERF1_1, O14745 = molecular target: T10, NHERF1_1, O14745
T10 sequence (O14745 9-104, limits assumed, looked up): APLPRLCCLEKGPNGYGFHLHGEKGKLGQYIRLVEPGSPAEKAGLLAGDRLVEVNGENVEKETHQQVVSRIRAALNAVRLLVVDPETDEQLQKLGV

IL16_2, Q14005 = molecular target: IL16_2, Q14005
CNKSR1, Q969H4 = molecular target: T11, CNKSR1, Q969H4
T11 sequence (Q969H4 191-295, limits assumed, looked up): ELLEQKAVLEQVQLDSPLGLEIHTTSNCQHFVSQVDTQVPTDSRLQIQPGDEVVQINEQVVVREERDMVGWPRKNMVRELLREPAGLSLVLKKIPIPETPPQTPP

MPDZ_6, O75970 = molecular target: T12, MPDZ_6, O75970
T12 sequence (O75970 1003-1099, limits assumed, looked up): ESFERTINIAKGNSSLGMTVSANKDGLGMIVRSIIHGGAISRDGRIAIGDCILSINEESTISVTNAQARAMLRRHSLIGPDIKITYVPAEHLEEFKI

GRIP2_2, Q9C0E4 = molecular target: GRIP2_2, Q9C0E4
LNX2_4, Q8N448 = molecular target: T13, LNX2_4, Q8N448
T13 sequence (Q8N448 595-690, limits assumed, looked up): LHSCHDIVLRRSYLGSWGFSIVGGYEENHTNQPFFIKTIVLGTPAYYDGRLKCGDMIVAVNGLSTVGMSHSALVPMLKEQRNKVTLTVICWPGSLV

MAGI2_1, Q86UL8 = molecular target: T14, MAGI2_1, Q86UL8
T14 sequence (Q86UL8 12-111, limits assumed, looked up): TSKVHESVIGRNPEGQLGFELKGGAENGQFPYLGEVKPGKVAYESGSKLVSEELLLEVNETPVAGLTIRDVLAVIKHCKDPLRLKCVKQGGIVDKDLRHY

MAGI1_3, Q96QZ7, sequence (Q96QZ7 638-725): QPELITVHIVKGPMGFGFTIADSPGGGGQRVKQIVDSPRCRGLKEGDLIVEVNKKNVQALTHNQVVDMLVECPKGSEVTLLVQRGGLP
MAGI1_5, Q96QZ7, sequence (Q96QZ7 986-1098): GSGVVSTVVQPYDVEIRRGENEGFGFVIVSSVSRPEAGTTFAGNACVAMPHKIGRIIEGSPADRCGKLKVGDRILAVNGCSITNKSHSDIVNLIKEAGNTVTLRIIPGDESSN
CNKSR3, Q6P9H4, sequence (Q6P9H4 203-303): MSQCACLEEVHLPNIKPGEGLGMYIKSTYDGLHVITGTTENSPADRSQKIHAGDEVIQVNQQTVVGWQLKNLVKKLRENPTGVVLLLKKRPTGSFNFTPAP
IL16_2, Q14005, sequence (Q14005 350-450): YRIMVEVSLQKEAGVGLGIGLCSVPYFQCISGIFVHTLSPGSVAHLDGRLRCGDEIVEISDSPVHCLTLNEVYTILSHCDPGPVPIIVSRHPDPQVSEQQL
RGS3, P49796-9, sequence (P49796 other isoform, or with tags, fused parts or gaps): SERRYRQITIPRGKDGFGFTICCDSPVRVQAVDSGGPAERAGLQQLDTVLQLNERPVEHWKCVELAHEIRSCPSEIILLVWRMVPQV
SCRIB_4, Q14160, sequence (Q14160 1095-1204): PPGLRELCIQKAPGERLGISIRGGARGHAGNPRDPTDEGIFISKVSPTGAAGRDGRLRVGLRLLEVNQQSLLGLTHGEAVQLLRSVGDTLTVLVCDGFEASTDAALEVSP
PARD3_1, Q8TEW0, sequence (Q8TEW0 264-372): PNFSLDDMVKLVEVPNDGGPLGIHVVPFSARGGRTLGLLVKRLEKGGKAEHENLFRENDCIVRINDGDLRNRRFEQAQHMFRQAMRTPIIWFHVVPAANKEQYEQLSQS
GRIP2_2, Q9C0E4, sequence (Q9C0E4 137-245): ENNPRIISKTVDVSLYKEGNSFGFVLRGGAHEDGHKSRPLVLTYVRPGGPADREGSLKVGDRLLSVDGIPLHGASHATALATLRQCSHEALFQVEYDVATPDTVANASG
RIMS1, Q86UR5, sequence (Q86UR5 584-692): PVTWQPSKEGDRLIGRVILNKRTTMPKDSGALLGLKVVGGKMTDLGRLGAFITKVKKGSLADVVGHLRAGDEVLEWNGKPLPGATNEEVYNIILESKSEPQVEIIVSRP

pKd (RGS12, O14924): below the threshold | pKd (USH1C_1, Q9Y6N9): 4.33 | pKd (NHERF1_2, O14745): below the threshold | pKd (RGS3, P49796-9): below the threshold | pKd (MPP1, Q00013): below the threshold | pKd (SNTB2, Q13425): 4.49 | pKd (PARD3_1, Q8TEW0): below the threshold | pKd (PTPN13_4, Q12923): below the threshold | pKd (MPDZ_3, O75970): 4.18 | pKd (RIMS1, Q86UR5): below the threshold | pKd (CNKSR3, Q6P9H4): below the threshold | pKd (MAGI1_5, Q96QZ7): 5.11 | pKd (PDZD2_3, O15018): 4.32 | pKd (SCRIB_4, Q14160): 4.29 | pKd (MAGI1_3, Q96QZ7): below the threshold | pKd (SHANK3, Q9BYB0): 5.54 | pKd (NHERF1_1, O14745): 5.36 | pKd (IL16_2, Q14005): below the threshold | pKd (CNKSR1, Q969H4): below the threshold | pKd (MPDZ_6, O75970): below the threshold | pKd (GRIP2_2, Q9C0E4): below the threshold | pKd (LNX2_4, Q8N448): below the threshold | pKd (MAGI2_1, Q86UL8): below the threshold
Binder: STLTIFETAL [ABCC4, O15439]
